The chains are these.
B1: H2-Kb / Ed31 (parent complex)
chain 1: GQQVQQSPASLVLQEGENAELQCNFSTSLNSMQWFYQRPGGSLVSLFYNPSGTKHSGRLTSTTVIKERRSSLHISSSQTTDSGTYLCALEGNYAQGLTFGLGTRVSVFP
chain 2: ETAVFQTPNYHVTQVGNEVSFNCKQTLGHDTMYWYKQDSKKLLKIMFSYNNKQLIVNETVPRRFSPQSSDKAHLNLRIKSVEPEDSAVYLCASRSAGEQYFGPGTRLTVL
chain 3: not shown
chain 4: IQKTPQIQVYSRHPPENGKPNILNCYVTQFHPPHIEIQMLKNGKKIPKVEMSDMSFSKDWSFYILAHTEFTPTETDTYACRVKHDSMAEPKTVYWDRDM
chain 5: SIINFEKL
B2: H2-Kb / Ed46 (parent complex)
chain 1: AQSVTQPDARVTVSEGASLQLRCKYSYFGTPYLFWYVQYPRQGLQLLLKYYPGDPVVQGVNGFEAEFSKSNSSFHLRKASVHWSDWAVYFCAVGRTGGYKVVFGSGTRLLVSP
chain 2: DSGVVQSPRHIIKEKGGRSVLTCIPISGHSNVVWYQQTLGKELKFLIQHYEKVERDKGFLPSRFSVQQFDDYHSEMNMSALELEDSAMYFCASSPRHSDYTFGSGTRLLVI
chain 3: not shown
chain 4: B1 chain 4
chain 5: SIINFEKL
Also: test concentration or dose not given here.

Variants of B1 are the subject of the first assay. Nature of the assay: % of reporter cells activated (NFAT-GFP), raw.
As for chain 5 K7Y, the ratio to parent was 0.167.

Regarding chain 5 K7R, the ratio to parent was determined as 0.698.

Turning to chain 5 K7L, the ratio to parent turned out to be 0.141.

With chain 5 K7N, the ratio to parent turned out to be 0.185.

On to chain 5 K7V, for which the ratio to parent came out at 0.247.

For chain 5 K7F, the ratio to parent came out at 0.0347.

In the case of chain 5 K7E, the ratio to parent came to 0.0194.

Turning to chain 5 K7T, the ratio to parent was determined as 0.102.

chain 5 K7D: the ratio to parent was 0.167.

As to chain 5 K7P, the ratio to parent worked out at 0.298.

In the case of chain 5 K7W, the ratio to parent worked out at 0.542.

In the case of chain 5 K7S, the ratio to parent was 0.614.

Consider chain 5 K7M, for which the ratio to parent amounted to 0.104.

For chain 5 L8W, the ratio to parent worked out at 0.766.

Regarding chain 5 L8C, the ratio to parent is 0.602.

For the variant chain 5 L8N, the ratio to parent is 0.69.

With chain 5 L8F, the ratio to parent amounted to 0.891.

Consider chain 5 L8A, for which the ratio to parent was 0.898.

For the variant chain 5 L8H, the ratio to parent was 0.802.

In the case of chain 5 L8S, the ratio to parent is 0.762.

For chain 5 L8E, the ratio to parent stood at 0.687.

On to chain 5 L8V, for which the ratio to parent was found to be 0.812.

Take chain 5 L8I: the ratio to parent was determined as 0.968.

In the case of chain 5 L8R, the ratio to parent amounted to 0.791.

Regarding chain 5 L8Q, the ratio to parent amounted to 0.876.

For the variant chain 5 L8T, the ratio to parent was determined as 0.862.

In the case of chain 5 L8Y, the ratio to parent amounted to 0.922.

As for chain 5 L8P, the ratio to parent stood at 0.779.

chain 5 I3T: the ratio to parent came to 0.548.

Turning to chain 5 I3V, the ratio to parent is 0.982.

For the variant chain 5 I3A, the ratio to parent was found to be 0.523.

chain 5 I3M: the ratio to parent was 0.563.

Regarding chain 5 I3P, the ratio to parent amounted to 0.894.

Consider chain 5 I3D, for which the ratio to parent was 0.375.

Regarding chain 5 I3Q, the ratio to parent is 0.272.

Regarding chain 5 I3E, the ratio to parent came to 0.499.

For chain 5 I3W, the ratio to parent was found to be 0.355.

On to chain 5 I3R, for which the ratio to parent was 0.0501.

Take chain 5 I3G: the ratio to parent was 0.309.

For the variant chain 5 I3H, the ratio to parent came out at 0.183.

As for chain 5 I3L, the ratio to parent is 1.02.

For the variant chain 5 I2F, the ratio to parent came to 0.795.

In the case of chain 5 I2V, the ratio to parent worked out at 1.07.

With chain 5 I2C, the ratio to parent was 1.07.

With chain 5 I2M, the ratio to parent came to 1.07.

Consider chain 5 I2E, for which the ratio to parent was 1.11.

On to chain 5 I2R, for which the ratio to parent came to 0.851.

As for chain 5 I2T, the ratio to parent was 1.09.

In the case of chain 5 I2W, the ratio to parent stood at 0.863.

On to chain 5 I2Q, for which the ratio to parent came to 0.897.

As for chain 5 N4S, the ratio to parent was 0.00781.

For chain 5 N4Q, the ratio to parent turned out to be 0.583.

For chain 5 N4K, the ratio to parent was 0.0359.

Take chain 5 N4T: the ratio to parent was found to be 0.156.

As to chain 5 N4L, the ratio to parent was found to be 0.198.

As to chain 5 N4F, the ratio to parent turned out to be 0.127.

On to chain 5 N4C, for which the ratio to parent turned out to be 0.031.

Regarding chain 5 N4R, the ratio to parent stood at 0.0703.

Regarding chain 5 N4P, the ratio to parent was 0.0223.

Regarding chain 5 N4G, the ratio to parent stood at 0.083.

Consider chain 5 N4A, for which the ratio to parent amounted to 0.0503.

For the variant chain 5 N4V, the ratio to parent amounted to 0.132.

On to chain 5 N4E, for which the ratio to parent is 0.0188.

With chain 5 N4I, the ratio to parent is 0.484.

With chain 5 F5W, the ratio to parent was determined as 0.829.

As for chain 5 F5Q, the ratio to parent came to 0.49.

Regarding chain 5 F5A, the ratio to parent was found to be 0.866.

Turning to chain 5 F5L, the ratio to parent came to 0.821.

For the variant chain 5 F5D, the ratio to parent amounted to 0.536.

With chain 5 F5I, the ratio to parent is 0.496.

Regarding chain 5 F5Y, the ratio to parent was 1.11.

Turning to chain 5 F5M, the ratio to parent was 0.917.

Take chain 5 F5H: the ratio to parent was 0.892.

For the variant chain 5 F5G, the ratio to parent turned out to be 0.529.

For the variant chain 5 F5V, the ratio to parent was found to be 0.859.

For chain 5 F5R, the ratio to parent was determined as 0.635.

Regarding chain 5 S1A, the ratio to parent amounted to 0.803.

As for chain 5 S1L, the ratio to parent worked out at 0.46.

chain 5 S1P: the ratio to parent turned out to be 0.658.

Regarding chain 5 S1C, the ratio to parent came to 0.44.

With chain 5 S1N, the ratio to parent came to 0.163.

Consider chain 5 S1K, for which the ratio to parent is 0.757.

For chain 5 S1Q, the ratio to parent turned out to be 0.757.

With chain 5 S1W, the ratio to parent was 0.498.

As for chain 5 S1R, the ratio to parent was found to be 0.532.

Consider chain 5 S1F, for which the ratio to parent was 0.459.

As for chain 5 S1M, the ratio to parent amounted to 0.898.

For chain 5 E6P, the ratio to parent came out at 0.0101.

chain 5 E6Y: the ratio to parent was 0.0864.

For chain 5 E6S, the ratio to parent stood at 0.00329.

Take chain 5 E6T: the ratio to parent came to 0.00208.

As for chain 5 E6D, the ratio to parent turned out to be 0.458.

For the variant chain 5 E6A, the ratio to parent worked out at 0.0173.

In the case of chain 5 E6H, the ratio to parent was 0.174.

In the case of chain 5 E6N, the ratio to parent stood at 0.0136.

Turning to chain 5 E6M, the ratio to parent is 0.25.

Take chain 5 E6W: the ratio to parent came out at 0.00233.

Turning to chain 5 E6G, the ratio to parent was found to be 0.435.

As to chain 5 E6R, the ratio to parent was 0.00349.

For the variant chain 5 E6F, the ratio to parent stood at 0.0115.

Regarding chain 5 E6V, the ratio to parent was 0.00379.

The variants in the next assay derive from B2. Kind of assay: % of reporter cells activated (NFAT-GFP), raw.
With chain 5 S1H, the ratio to parent is 0.973.

On to chain 5 S1V, for which the ratio to parent worked out at 0.0256.

For the variant chain 5 S1C, the ratio to parent is 0.0634.

For chain 5 S1P, the ratio to parent was determined as 0.0427.

Take chain 5 S1N: the ratio to parent is 0.0395.

As to chain 5 S1A, the ratio to parent is 0.746.

On to chain 5 S1T, for which the ratio to parent amounted to 0.278.

In the case of chain 5 K7I, the ratio to parent stood at 0.2.

On to chain 5 K7Q, for which the ratio to parent amounted to 0.0775.

Take chain 5 K7N: the ratio to parent was found to be 0.138.

With chain 5 K7W, the ratio to parent worked out at 0.628.

Turning to chain 5 K7C, the ratio to parent was 0.0252.

Take chain 5 K7E: the ratio to parent amounted to 0.00395.

chain 5 K7L: the ratio to parent stood at 0.178.

Turning to chain 5 F5L, the ratio to parent was 1.17.

Take chain 5 F5R: the ratio to parent was determined as 1.18.

Take chain 5 F5C: the ratio to parent was 1.19.

With chain 5 F5M, the ratio to parent is 1.02.

Regarding chain 5 F5S, the ratio to parent was found to be 1.32.

For chain 5 I3Y, the ratio to parent is 1.08.

In the case of chain 5 I3R, the ratio to parent was determined as 0.245.

As to chain 5 I3K, the ratio to parent is 0.924.

In the case of chain 5 I3D, the ratio to parent was found to be 0.17.

Regarding chain 5 I3G, the ratio to parent turned out to be 0.202.

In the case of chain 5 I3M, the ratio to parent is 0.446.

As to chain 5 I3H, the ratio to parent was 0.998.

For the variant chain 5 I3E, the ratio to parent was found to be 0.47.

As for chain 5 I2R, the ratio to parent stood at 1.11.

chain 5 I2A: the ratio to parent turned out to be 1.4.

With chain 5 I2N, the ratio to parent was 0.898.

Take chain 5 I2F: the ratio to parent was determined as 1.13.

For the variant chain 5 I2T, the ratio to parent was determined as 1.39.

Consider chain 5 I2Y, for which the ratio to parent turned out to be 0.656.

Regarding chain 5 L8Y, the ratio to parent turned out to be 1.07.

For chain 5 L8K, the ratio to parent turned out to be 1.09.

Regarding chain 5 L8A, the ratio to parent is 0.861.

On to chain 5 L8I, for which the ratio to parent was 1.07.

As to chain 5 L8C, the ratio to parent came to 0.613.

With chain 5 E6L, the ratio to parent stood at 0.16.

Turning to chain 5 E6W, the ratio to parent was 0.038.

chain 5 E6A: the ratio to parent was 0.534.

Turning to chain 5 N4P, the ratio to parent came to 0.00841.

For chain 5 N4L, the ratio to parent worked out at 0.0593.

As to chain 5 N4K, the ratio to parent came to 0.027.

With chain 5 N4W, the ratio to parent turned out to be 0.0119.

Consider chain 5 N4M, for which the ratio to parent was 0.00538.

Turning to chain 5 N4R, the ratio to parent worked out at 0.317.

In the case of chain 5 N4T, the ratio to parent came to 0.00841.

On to chain 5 N4Y, for which the ratio to parent amounted to 0.0186.

These data come from article PMC11480844 (2024).
